Data reported in publication PMC5758537.

Legend:
[1] = biological target: dopamine D2 receptor (rat, endogenous) (rat (endogenous in rat striatum)) (UniProt P61169); assay: FRET or BRET; in situ confocal FRET on rat brain sections, NAc (core and shell); anti-D1R-Alexa 488 (donor) and anti-D2R-Alexa 568 (acceptor) directly conjugated
[2] = biological target: dopamine D2 receptor (rat, endogenous) (rat (endogenous in rat striatum)) (UniProt P61169); assay: co-IP; rat NAc protein homogenates (300 ug), anti-D2R antibody overnight at 4 C, protein G/A, blot with anti-D1R; rats treated with saline or SKF 83959, with or without TAT-D1 (300 pmol, i.c.v.)

UniProt P61169, sequence (P61169 whole entry): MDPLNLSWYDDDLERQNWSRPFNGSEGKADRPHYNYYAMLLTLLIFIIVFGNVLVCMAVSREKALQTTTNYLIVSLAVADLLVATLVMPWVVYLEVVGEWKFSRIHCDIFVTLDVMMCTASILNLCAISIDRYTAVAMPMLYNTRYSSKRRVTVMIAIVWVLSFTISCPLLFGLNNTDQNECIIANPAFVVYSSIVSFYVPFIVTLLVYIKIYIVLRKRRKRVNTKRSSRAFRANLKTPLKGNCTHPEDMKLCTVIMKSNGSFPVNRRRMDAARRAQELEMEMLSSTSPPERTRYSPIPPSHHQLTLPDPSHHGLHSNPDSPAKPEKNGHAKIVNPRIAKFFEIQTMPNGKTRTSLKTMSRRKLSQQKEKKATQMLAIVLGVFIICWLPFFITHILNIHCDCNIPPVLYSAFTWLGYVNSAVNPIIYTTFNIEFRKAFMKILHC

Row | FRET efficiency [1] | Substance | percent decrease of D1R co-immunoprecipitated with D2R [2] [%]
1 | 0.36 | dopamine D1 receptor (rat, endogenous) (from UniProt P18901 1-446) | 
2 |  | TAT-D1 peptide | > 50
